Here are results for eight molecules from patent US20260102505A1, “ANTI-CD45-IGN ANTIBODY DRUG CONJUGATES AND USES THEREOF” (Vor Biopharma Inc., priority 2022, published 2026).

First the molecules themselves.
B1: AbA: humanized and affinity matured anti-CD45 antibody, VH SEQ ID NO:71, VL SEQ ID NO:75 (antibody, V domains shown)
VH: EVQLLESGGGLVQPGGSLRLSCAASGFTFNNYWMTWVRQAPGKGLEWVSSISSSGGSIYYPDRVKGRFTISRDNSKNTLYLQMNSLRAEDTAVYYCARDERWAGAMDAWGQGTTVTVSS
VL: DIQMTQSPSSLSASVGDRVTITCKASQNINKNLDWYQQKPGKAPKLLIYETNNLQTGVPSRFSGSGSGTDFTLTISSLQPEDFATYYCYQHNSRFTFGQGTKLEIK
B2: Ab2: human anti-CD45 antibody, VH SEQ ID NO:11, VL SEQ ID NO:15 (antibody, V domains shown)
VH: EVQLVESGGGLVQPGGSLRLSCAASGFTFEAYSMNWVRQAPGKGLEWVSYISLSGATIHYADSVKGRFTISRDNAKNSLYLQMNSLRAEDTAVYYCARGGQYYYDSSDYGEVAFDIWGQGTMVTVSS
VL: DIVMTQSPLSLPVTPGEPASISCRSSQSLVSNGYNYLDWYLQKPGQSPQLLIYFGSSRASGVPDRFSGSGSGTDFTLKISRVEAEDVGVYYCMQRRRTPWSFGGGTKVEIK
B3: Ab6: human anti-CD45 antibody, VH SEQ ID NO:51, VL SEQ ID NO:55 (antibody, V domains shown)
VH: B2 VH with D105T, M122L
VL: B2 VL with M4L, N32S
B4: Ab3: human anti-CD45 antibody, VH SEQ ID NO:21, VL SEQ ID NO:25 (antibody, V domains shown)
VH: B2 VH with E1Q, Q13K, E30G, A31G, L53I, H59T
VL: DIVMTQSPLSLPVTPGEPASISCRSSQSLVSNGYNYLDWYLQKPGQSPQLLIYFGSSRASGVPDRFSGSGSGTDFTLKISRVEAEDVGVYYCMQRRRTPPFTFGGGTKVEIK
B5: Ab7: human anti-CD45 antibody, VH SEQ ID NO:61, VL SEQ ID NO:65 (antibody, V domains shown)
VH: B2 VH with E1Q, Q13K, E30G, A31G, L53I, H59T
VL: B4 VL with N32S
B6: Ab4: human anti-CD45 antibody, VH SEQ ID NO:31, VL SEQ ID NO:35 (antibody, V domains shown)
VH: B2 VH with D105T
VL: B2 VL
B7: AbB: humanized and affinity matured anti-CD45 antibody, VH SEQ ID NO:81, VL SEQ ID NO:85 (antibody, V domains shown)
VH: EVQLVESGGGLVQPGGSLRLSCAASGFTFTNFWMAWIRQAPGKGLEWVASISSSGGSIYYPDSVKDRFTISRDNSKNTLYLQMNSLRAEDTAVYYCVKFHHYSGGGDAWGQGTLVTVSS
VL: DIQMTQSPSSLSASVGDRVTITCKASQNINKYLDWYQQKPGKAPKLLIHYTNNLHTGIPSRFSGSGSGTDYTLTISSLQPEDFATYYCLQHSSRWTFGGGTKVEIK
B8: AbC: humanized and affinity matured anti-CD45 antibody, VH SEQ ID NO:91, VL SEQ ID NO:95 (antibody, V domains shown)
VH: EVQLVESGGGLVQPGGSLRLSCAASGFTFNNYWMTWVRQAPGKGLEWVSSISSSGGSIYYPDSVKDRFTISRDNAKNSLYLQMNSLRAEDMAVYYCARLYYYDGGGDAWGQGTLVTVSS
VL: B7 VL with D1G, N28D, H49Y, Y50N, S92I

Residue numbers refer to the chain shown, from its start.

The assay relates to human CD45, cyno CD45 and rhesus CD45. The assay is described as follows: CD45 binding / species cross-reactivity of antibodies. Details: species or system cynomolgus.
On to B1, for which the “cross-reactivity with CD45 of species (in words)” value (“cross-reactivity with CD45” for short) is “cross reacts with human CD45, cyno CD45 and rhesus CD45”.

Consider B2, for which the “cross-reactivity with CD45” value is “cross reacts with human CD45, cyno CD45 and rhesus CD45”.

Turning to B3, the “cross-reactivity with CD45” value was “cross reacts with human CD45, cyno CD45 and rhesus CD45”.

In the case of B4, the “cross-reactivity with CD45” value was “cross reacts with human CD45, cyno CD45 and rhesus CD45”.

With B5, the “cross-reactivity with CD45” value is “cross reacts with human CD45, cyno CD45 and rhesus CD45”.

For the molecule B6, the “cross-reactivity with CD45” value is “cross reacts with human CD45, cyno CD45 and rhesus CD45”.

Regarding B7, the “cross-reactivity with CD45” value was “cross reacts with human CD45, cyno CD45 and rhesus CD45”.

Turning to B8, the “cross-reactivity with CD45” value was “cross reacts with human CD45, cyno CD45 and rhesus CD45”.
